{"source": "paper PMC2361330", "about": "(British Journal of Cancer, 2006)", "target": "Vascular endothelial growth factor receptor 1 (human (endogenous in HT29), UniProt P17948 27-1338)", "sequence (P17948 27-1338)": "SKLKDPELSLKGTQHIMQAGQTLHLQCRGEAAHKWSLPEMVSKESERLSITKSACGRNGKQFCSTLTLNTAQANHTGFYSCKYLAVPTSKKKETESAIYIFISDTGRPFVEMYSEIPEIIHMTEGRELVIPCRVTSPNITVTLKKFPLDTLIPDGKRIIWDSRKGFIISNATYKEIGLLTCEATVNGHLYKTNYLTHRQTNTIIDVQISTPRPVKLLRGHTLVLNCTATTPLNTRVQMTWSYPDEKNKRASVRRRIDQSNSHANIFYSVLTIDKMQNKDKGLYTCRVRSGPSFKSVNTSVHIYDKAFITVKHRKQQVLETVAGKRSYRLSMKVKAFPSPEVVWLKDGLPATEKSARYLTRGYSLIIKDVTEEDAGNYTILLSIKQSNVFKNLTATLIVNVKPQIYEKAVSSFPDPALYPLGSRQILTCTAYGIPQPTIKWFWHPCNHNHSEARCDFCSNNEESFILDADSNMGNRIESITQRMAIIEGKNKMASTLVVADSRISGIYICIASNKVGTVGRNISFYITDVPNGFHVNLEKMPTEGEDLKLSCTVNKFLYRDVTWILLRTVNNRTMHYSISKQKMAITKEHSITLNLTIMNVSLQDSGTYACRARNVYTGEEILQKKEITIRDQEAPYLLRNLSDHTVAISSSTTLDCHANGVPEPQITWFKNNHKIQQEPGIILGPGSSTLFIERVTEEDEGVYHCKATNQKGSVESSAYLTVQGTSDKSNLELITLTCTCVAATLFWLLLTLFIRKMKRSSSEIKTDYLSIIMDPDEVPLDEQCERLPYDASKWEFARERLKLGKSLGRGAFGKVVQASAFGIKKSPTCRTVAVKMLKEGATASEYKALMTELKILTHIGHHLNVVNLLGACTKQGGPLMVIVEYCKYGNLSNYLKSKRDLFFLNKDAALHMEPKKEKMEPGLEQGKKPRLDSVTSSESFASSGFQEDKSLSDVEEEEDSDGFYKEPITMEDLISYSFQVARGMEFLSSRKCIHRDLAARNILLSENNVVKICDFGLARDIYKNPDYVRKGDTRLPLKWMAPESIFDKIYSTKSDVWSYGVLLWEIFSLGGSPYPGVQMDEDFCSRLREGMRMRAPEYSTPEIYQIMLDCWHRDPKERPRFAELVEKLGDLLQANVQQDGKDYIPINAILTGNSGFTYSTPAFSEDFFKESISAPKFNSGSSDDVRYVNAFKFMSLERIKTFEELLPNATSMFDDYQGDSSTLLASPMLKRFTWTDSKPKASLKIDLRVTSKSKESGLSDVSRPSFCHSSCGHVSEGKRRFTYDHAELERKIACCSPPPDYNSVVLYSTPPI", "assay": "cell-based or functional assay"}
{"binder": "Yes (enzyme) not shown", "values": [{"measurement": "Yes kinase activity by immune complex kinase assay in HT29 cells treated with VEGF-A (10 ng ml^−1) for 0-15 min", "value": "~2.5", "unit": "fold"}]}
